Values of other authors as cited in article PMC8654464.

Target: SARS-CoV-2 spike protein RBD (Severe acute respiratory syndrome coronavirus 2) (UniProt P0DTC2)

regdanvimab
Kd: 0.065 nM
